The results in this text go back to patent publication US20130096072A1 (Genentech, published 2013).

Bridges are numbered along the chain shown (N, C = ends). Where no end group is shown, it is not given here.

Experiment [1] has as its target T1, scHGF β-chain (zymogen-like HGF β, residues Asn479 to Ser728, R494E, C-terminal His-tag) (human, UniProt P14210 479-728).
T1 construct: Expressed in insect cells; also called zHGF β; zymogen-like form of HGF β; not shown: C-terminal His-tag
Nature of the experiment: activity-based phage sorting: library with 0.5 µM scHGF β in solution, complex captured on a Met Sema-PSI coated plate; the clones as a group are plotted in FIG. 9B. The procedure: Where activity-based sorting was conducted, the phage library was incubated in solution with 0.5 μM scHGF β at 4° C. then the mixture was applied to a Maxi-Sorp plate coated with 5 μg/ml Met Sema-PSI ECD protein for capture of activated complex. To analyze phage clones from the activity-based sorting two ELISAs were carried out separately to analyze binding and activity. The first ELISA measured direct phage binding to wells coated with 5 μg/ml scHGF β relative to a BSA control. The second activity ELISA measured phage binding to wells coated with 5 μg/ml Met in the presence or absence (negative control) of 0.5 μM scHGF β in solution. The data from these two ELISAs were plotted with direct binding on the y-axis and Met capture (activity) on the x-axis.
The new 15-mer ZAP-gene VIII phage library contained two main regions that were preferentially shielded from hard-randomization, the N-terminal motif which inserted into the activation pocket and a portion of the reverse turn motif that packs against the protein surface in the bound state (FIG. 8A). […] Phage clones from the solution sort and activity-based sort were sequenced and subjected to a 2-dimensional ELISA analysis, where the clones were analyzed for (i) direct scHGF β binding and (ii) the ability of phage clones to be captured by Met only in the presence of scHGF β.

The target of experiment [2] is T1, scHGF β-chain (zymogen-like HGF β, …). Kind of experiment: cell-based or functional assay.
Experiment [3] addresses scHGF (non-cleavable form of full-length pro-HGF with a mutated cleavage site) (human, UniProt P14210 32-728). Nature of the experiment: cell-based or functional assay.
In experiment [4] the target is T1, scHGF β-chain (zymogen-like HGF β, …). Nature of the experiment: BLI scHGF β activation/Met binding assay.
Experiment [5] shares this target. Nature of the experiment: BLI, peptide-dependent activation of zHGF β binding to surface immobilized Met ECD. The protocol: (§1) Met binding assays were carried out utilizing the OctetRed™ biolayer interferometry instrument (ForteBio, Inc.) as reported previously (Landgraf, K. E. et al. (2010) J Biol Chem 285: 40362-72). Biotinylated Met ECD (Sema/PSI-AviTag) was captured on the surface of streptavidin optical sensor tips (SA biosensors, ForteBio, Inc.), and transferred into buffer containing 0.5 μM scHGF β-chain variants in the presence of increasing concentration of indicated peptides. Association and dissociation reactions were monitored to ensure reversible binding between scHGF β and Met. Binding was quantified using the steady-state levels of surface response from the association reaction. Equilibrium constants were derived by least squares fitting of the titration data to a single-site binding equation. Errors reported are ±stdev of n=3 independent experiments.
For orientation: Biolayer interferometry detects binding as a change in optical thickness at a sensor tip.

For experiment [6] the target is unchanged. Kind of experiment: BLI (OctetRed) scHGF β activation/Met binding assay: peptide titrated into 0.5 µM scHGF β over biotinylated Met Sema/PSI on streptavidin tips; steady-state single-site fit. The procedure: as §1
Based on the finding that the consensus ZAPs contain features consistent with binding and inserting into the activation pocket, several related peptides were synthesized and utilized in a previously established scHGF β activation assay to assess their affinities and ability to active Met binding (Landgraf, K. E. et al. (2010) J Biol Chem 285: 40362-72). Since scHGF β can only weakly interact with the Met Sema-PSI domain compared to the active HGF β form, biolayer interferometry was used in the activation assay to measure the ability of a peptide to directly enhance the binding affinity of scHGF β to a streptavidin sensor surface coated with biotinylated Met (Landgraf, K. E. et al. (2010) J Biol Chem 285: 40362-72). Thus, titration of an activator peptide should result in a significant increase in the surface response signal due to enhanced scHGF β binding to Met.

The target is the same in experiment [7]. Kind of experiment: biolayer interferometry: biotinylated Met Sema/PSI on streptavidin tips, 0.5 µM scHGF β in solution, peptide titrated; steady-state surface response of scHGF β binding to Met. The procedure: as §1
Based on the finding that the consensus ZAPs contain features consistent with binding and inserting into the activation pocket, several related peptides were synthesized and utilized in a previously established scHGF β activation assay to assess their affinities and ability to active Met binding (Landgraf, K. E. et al. (2010) J Biol Chem 285: 40362-72). […]

T1 sequence (P14210 479-728 R494E): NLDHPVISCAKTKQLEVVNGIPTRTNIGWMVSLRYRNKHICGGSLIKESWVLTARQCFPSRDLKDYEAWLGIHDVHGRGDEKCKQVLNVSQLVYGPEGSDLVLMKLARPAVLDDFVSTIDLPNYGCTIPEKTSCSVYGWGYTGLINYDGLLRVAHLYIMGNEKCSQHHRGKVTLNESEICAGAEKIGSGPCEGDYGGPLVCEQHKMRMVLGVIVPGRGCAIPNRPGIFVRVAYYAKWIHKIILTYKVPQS
scHGF (non-cleavable form of full-length pro-HGF with a mutated cleavage site), sequence (P14210 32-728 limits assumed, change not shown): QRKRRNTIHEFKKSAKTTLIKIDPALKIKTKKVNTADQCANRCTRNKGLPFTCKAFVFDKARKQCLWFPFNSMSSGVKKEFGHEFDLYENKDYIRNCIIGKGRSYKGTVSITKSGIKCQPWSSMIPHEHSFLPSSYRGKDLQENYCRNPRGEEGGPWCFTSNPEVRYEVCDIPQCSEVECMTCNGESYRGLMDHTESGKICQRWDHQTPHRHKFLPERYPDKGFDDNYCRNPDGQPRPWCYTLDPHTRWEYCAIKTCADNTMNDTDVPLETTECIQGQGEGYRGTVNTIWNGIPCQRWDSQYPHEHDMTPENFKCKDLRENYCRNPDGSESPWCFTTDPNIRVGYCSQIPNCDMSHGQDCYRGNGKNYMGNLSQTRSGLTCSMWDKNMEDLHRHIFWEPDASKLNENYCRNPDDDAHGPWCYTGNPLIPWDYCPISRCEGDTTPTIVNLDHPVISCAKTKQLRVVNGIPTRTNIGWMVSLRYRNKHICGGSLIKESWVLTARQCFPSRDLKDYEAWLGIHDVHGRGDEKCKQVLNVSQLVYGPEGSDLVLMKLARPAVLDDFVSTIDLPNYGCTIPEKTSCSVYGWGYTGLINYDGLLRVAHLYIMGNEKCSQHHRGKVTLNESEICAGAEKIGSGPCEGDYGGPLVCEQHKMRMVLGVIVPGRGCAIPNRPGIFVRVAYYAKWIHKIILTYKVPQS

As for IIGGCPYWMDREECI (disulfide 5-14) [ZAP.03], the binding result in experiment [1] is “binds”.
As to IVGGYAWWMDV-NH2 [IVGG.14 P6A variant], in experiment [2], the “activity (alanine scanning of the YPWWM turn motif), loss against IVGG.14” value was found to be 25 fold.

B1: IVGG.14 peptide (peptide)
peptide: IVGGYPWWMDV-NH2
notes: Synthetic peptide; also called possibly ZAP.14
By Kd is commonly meant the free concentration of one partner at which half of the binding sites on the other are occupied at equilibrium, for simple one-to-one binding. The low end stands for higher affinity, the high end for lower affinity. Regarding B1, the “EC50, BxPC-3 cell survival assay, peptide titrated with scHGF” value in experiment [3] was approximately 20 µM. Also, in experiment [4], the “fold more potent than the peptides derived from the native N-terminus of the β-chain of HGF” value was approximately 60 fold. In addition, the “fold improvement over previous activators” value in experiment [5] was more than 90 fold. Further, binding in experiment [6] was put at a Kd of 34 µM.
With IVDDYPWWMDV-NH2 [IVDD.14 peptide], in experiment [7], the binding result is recorded as “no binding (tested: about 125 µM)”.
For the molecule IVGDYPWWMDV-NH2 [IVGD.14 peptide], the binding result in experiment [7] is recorded as “no binding”.
As to IVGGYPWAMDV-NH2 [IVGG.14 W8A variant], the “activity (alanine scanning of the YPWWM turn motif), loss against IVGG.14” value in experiment [2] was found to be 10 fold.
